# Test results as given in paper PMC11594918, “Kinetic Features of Degradation of R-Loops by RNase H1 from Escherichia coli”.
# Substitutions are numbered along the chain they refer to.
# B1: R-loop 1 (mixed)
# DNA 1: ACTTGTAGCGATCTAAGGTCTTTTTTTTTGGCTCATTGCAGTAGAGTAGC
# DNA 2: GCTACTCTACTGCAATGAGCTGCTCTCTGGAACCTTAGATCGCTACAAGT
# RNA: CUCACAUCCAGAGAGCA
# B2: R-loop 2 (mixed)
# DNA 1: B1 DNA 1 with G30A
# DNA 2: B1 DNA 2
# RNA: CUCACAUCCAGAGAGCA
# B3: R-loop 3 (mixed)
# DNA 1: B1 DNA 1 with G31C
# DNA 2: B1 DNA 2
# RNA: CUCACAUCCAGAGAGCA
# B4: R-loop 6 (mixed)
# DNA 1: ACTTGTAGCGATCTAAGGTCTTTTTTTTTTTTTTGGCTCATTGCAGTAGAGTAGC
# DNA 2: GCTACTCTACTGCAATGAGCTGCTCTCTGGACTCGAACCTTAGATCGCTACAAGT
# RNA: CUCACAUCGAGUCCAGAGAGCA
# B5: R-loop 7 (mixed)
# DNA 1: ACTTGTAGCGATCTAAGGTCTTTTTTTTTTTTTTTTTTTGGCTCATTGCAGTAGAGTAGC
# DNA 2: GCTACTCTACTGCAATGAGCTGGGATGTGTAGTGGAATAGAACCTTAGATCGCTACAAGT
# RNA: CUCACAUCUAUUCCACUACACAUCCCA
# B6: R-loop 8 (mixed)
# DNA 1: ACTTGTAGCGATCTAAGGTCTTTTTTTTTTTTTTTTTTTTTTTTTTTTTGGCTCATTGCAGTAGAGTAGC
# DNA 2: GCTACTCTACTGCAATGAGTGCTTGATGGAGGGATGTGTAGTGGAATAGATACCTTAGATCGCTACAAGT
# RNA: CUCACAUCUAUUCCACUACACAUCCCUCCAUCAAGCA
# B7: R-loop 9 (mixed)
# DNA 1: ACTTGTAGCGATCTAAGGTCTTTTGGGTGGGTGGGTGGGTTTTTTTTTTGGCTCATTGCAGTAGAGTAGC
# DNA 2: B6 DNA 2
# RNA: B6 RNA
# Key:
# RNA polymerase (RNAP) = RNA polymerase (RNAP) (Escherichia coli, UniProt P0A7Z4;P0A8V2;P0A8T7;P0A800 1-329;1-1342;1-1407;2-91); experiment: MST; MST: 40 mM Tris-HCl pH 7.9, 40 mM KCl, 10 mM MgCl2, 25 C; R-loop 0.5 uM, RH1 D10N 0.05-30 uM (RNAP MST conditions not stated separately); conditions: protein: recombinant; tags: N-terminal His (pVS10 plasmid); chain copies: 2;1;1;1; label: 5'-FAM on RNA; three strands 1:1:1 (nontemplate DNA, template DNA, RNA); bubble; 11 bp hybrid
# RNase H1 D10N (RH1 D10N) [1] = biological target: T1, RNase H1 D10N (RH1 D10N) (Escherichia coli, UniProt P0A7Y4 1-155, D10N); experiment: MST; 10 mM Mg2+; MST: 40 mM Tris-HCl pH 7.9, 40 mM KCl, 10 mM MgCl2, 25 C; R-loop 0.5 uM, RH1 D10N 0.05-30 uM (RNAP MST conditions not stated separately); conditions: protein: recombinant, tags: N-terminal 6xHis, label: 5'-FAM on RNA, bubble
# T1 sequence: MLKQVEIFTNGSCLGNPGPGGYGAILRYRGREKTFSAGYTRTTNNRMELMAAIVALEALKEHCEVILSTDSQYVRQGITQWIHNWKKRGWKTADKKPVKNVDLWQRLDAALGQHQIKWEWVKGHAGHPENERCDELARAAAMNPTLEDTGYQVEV
# RNase H1 D10N (RH1 D10N) [2] = biological target: T1, RNase H1 D10N (RH1 D10N); experiment: MST; 10 mM Mg2+; saturation not reached, low limit estimate; MST: 40 mM Tris-HCl pH 7.9, 40 mM KCl, 10 mM MgCl2, 25 C; R-loop 0.5 uM, RH1 D10N 0.05-30 uM (RNAP MST conditions not stated separately); conditions: protein: recombinant, tags: N-terminal 6xHis, label: 5'-FAM on RNA, three strands 1:1:1, bubble
# [3] = three strands 1:1:1, 10-11 nt hybrid
# Sequence of RNA polymerase (RNAP) (P0A7Z4 whole entry, chain 1 of 4): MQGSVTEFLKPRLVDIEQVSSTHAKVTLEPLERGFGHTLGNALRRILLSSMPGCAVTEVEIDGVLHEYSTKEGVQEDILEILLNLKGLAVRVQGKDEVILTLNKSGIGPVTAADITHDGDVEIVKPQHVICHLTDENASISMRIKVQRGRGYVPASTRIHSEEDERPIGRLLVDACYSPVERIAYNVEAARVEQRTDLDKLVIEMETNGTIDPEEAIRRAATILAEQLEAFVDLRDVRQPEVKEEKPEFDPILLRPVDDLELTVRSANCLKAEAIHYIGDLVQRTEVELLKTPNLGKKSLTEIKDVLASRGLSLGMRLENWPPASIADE
# Sequence of RNA polymerase (RNAP) (P0A8V2 whole entry, chain 2 of 4): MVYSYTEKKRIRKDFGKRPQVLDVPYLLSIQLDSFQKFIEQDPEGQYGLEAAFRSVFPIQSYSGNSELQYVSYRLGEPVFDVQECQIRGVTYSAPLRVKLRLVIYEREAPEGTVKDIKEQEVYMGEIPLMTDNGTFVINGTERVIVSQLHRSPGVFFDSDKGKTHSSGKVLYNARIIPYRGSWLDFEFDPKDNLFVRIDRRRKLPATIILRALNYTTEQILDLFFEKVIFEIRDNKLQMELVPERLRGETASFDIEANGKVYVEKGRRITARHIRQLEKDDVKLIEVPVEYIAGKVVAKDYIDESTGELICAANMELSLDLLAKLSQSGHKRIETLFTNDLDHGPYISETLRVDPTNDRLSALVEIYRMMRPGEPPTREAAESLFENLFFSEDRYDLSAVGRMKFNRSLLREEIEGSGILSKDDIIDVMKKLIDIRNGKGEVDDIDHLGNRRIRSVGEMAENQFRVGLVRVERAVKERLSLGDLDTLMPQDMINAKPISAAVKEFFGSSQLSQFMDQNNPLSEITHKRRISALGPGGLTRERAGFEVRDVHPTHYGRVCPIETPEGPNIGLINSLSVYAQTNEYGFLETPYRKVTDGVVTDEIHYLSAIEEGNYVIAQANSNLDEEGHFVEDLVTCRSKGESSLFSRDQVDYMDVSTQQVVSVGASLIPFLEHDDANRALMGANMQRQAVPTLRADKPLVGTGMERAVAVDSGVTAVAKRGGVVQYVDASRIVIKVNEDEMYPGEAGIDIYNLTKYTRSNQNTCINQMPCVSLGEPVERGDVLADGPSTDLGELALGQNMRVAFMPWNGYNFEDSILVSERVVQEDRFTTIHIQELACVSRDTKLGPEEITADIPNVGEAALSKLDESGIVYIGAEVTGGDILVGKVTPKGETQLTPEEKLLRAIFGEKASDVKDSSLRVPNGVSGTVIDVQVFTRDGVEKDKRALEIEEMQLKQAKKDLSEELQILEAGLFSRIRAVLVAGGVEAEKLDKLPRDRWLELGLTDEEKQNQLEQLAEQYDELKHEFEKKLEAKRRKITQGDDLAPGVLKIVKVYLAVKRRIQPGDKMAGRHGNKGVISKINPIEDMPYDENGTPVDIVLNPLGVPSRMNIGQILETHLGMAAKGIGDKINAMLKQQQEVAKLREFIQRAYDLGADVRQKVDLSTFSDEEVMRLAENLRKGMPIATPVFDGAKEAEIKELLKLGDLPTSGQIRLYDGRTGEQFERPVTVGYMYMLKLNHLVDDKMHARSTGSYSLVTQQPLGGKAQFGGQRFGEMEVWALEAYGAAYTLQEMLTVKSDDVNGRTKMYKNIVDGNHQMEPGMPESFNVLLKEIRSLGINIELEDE
# Sequence of RNA polymerase (RNAP) (P0A8T7 whole entry, chain 3 of 4): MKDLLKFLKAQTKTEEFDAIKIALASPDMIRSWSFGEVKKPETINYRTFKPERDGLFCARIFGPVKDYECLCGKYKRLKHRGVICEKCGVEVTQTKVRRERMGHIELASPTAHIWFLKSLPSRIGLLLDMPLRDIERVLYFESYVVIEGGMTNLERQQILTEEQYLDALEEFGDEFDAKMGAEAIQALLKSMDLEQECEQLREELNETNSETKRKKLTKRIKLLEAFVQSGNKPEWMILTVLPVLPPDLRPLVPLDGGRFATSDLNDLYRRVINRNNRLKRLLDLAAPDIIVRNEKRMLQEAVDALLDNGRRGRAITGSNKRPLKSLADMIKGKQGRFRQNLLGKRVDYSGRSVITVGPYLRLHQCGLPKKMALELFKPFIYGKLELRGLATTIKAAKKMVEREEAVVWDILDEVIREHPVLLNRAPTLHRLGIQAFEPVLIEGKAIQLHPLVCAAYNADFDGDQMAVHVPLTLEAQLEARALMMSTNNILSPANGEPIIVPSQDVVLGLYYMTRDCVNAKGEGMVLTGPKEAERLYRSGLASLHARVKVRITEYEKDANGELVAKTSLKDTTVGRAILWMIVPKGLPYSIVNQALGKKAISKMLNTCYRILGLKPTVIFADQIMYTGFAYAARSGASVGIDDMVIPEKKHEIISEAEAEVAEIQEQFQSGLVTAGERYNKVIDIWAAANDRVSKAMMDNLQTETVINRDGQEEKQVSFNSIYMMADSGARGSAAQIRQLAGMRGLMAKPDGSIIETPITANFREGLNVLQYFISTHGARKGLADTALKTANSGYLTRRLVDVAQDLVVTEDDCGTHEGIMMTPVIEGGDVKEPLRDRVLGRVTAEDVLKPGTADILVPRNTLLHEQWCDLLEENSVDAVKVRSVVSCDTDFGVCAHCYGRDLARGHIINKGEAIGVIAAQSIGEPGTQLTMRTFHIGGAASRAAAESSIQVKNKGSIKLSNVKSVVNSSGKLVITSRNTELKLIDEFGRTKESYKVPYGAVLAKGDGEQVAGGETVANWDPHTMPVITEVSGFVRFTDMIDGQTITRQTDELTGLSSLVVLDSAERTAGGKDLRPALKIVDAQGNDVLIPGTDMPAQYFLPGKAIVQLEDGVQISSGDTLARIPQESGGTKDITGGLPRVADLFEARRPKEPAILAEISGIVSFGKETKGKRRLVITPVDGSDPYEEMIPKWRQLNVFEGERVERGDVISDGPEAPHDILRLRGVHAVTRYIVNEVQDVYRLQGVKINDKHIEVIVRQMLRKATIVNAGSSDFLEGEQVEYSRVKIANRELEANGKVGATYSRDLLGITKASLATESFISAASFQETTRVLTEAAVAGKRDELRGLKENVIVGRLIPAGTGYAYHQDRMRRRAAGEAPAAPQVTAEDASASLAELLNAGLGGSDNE
# Sequence of RNA polymerase (RNAP) (P0A800 2-91, chain 4 of 4): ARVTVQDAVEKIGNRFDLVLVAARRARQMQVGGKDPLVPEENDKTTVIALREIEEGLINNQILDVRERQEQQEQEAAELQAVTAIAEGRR
binder,measurement,setting,value
B1,Kd,RNA polymerase (RNAP),0.3 ± 0.1 µM
same,Kd,"RNase H1 D10N (RH1 D10N) [1]; three strands 1:1:1 (nontemplate DNA, template DNA, RNA), 11 bp hybrid",1.2 ± 0.4 µM
B2,Kd,RNase H1 D10N (RH1 D10N) [1]; [3],1.1 ± 0.4 µM
B3,Kd,RNase H1 D10N (RH1 D10N) [1]; [3],1.5 ± 0.4 µM
B4,Kd,RNase H1 D10N (RH1 D10N) [2]; 16 nt hybrid,~9.7 µM
B5,Kd,RNase H1 D10N (RH1 D10N) [2]; extended hybrid,~6.7 µM
B6,Kd,RNase H1 D10N (RH1 D10N) [2]; extended hybrid,~9.3 µM
B7,Kd,"RNase H1 D10N (RH1 D10N) [2]; extended hybrid, G4 in nontemplate DNA (annealed in 140 mM KCl)",~5.1 µM
